Numbered stars: 1 amine (or outer) side, 2 acyl side, 3 side chain; on linkers, the order of the positions; unused ones are H or OH. Side chains are listed from the residue outwards. Ends that are not written are not given here. * marks the point of attachment. γGlu = O=C(O)[C@H](CCC(=O)[*:2])N[*:1]; Palmitoyl = CCCCCCCCCCCCCCCC(=O)*; βAla = NCCC(=O)O

The text below walks through data of patent US20190185537A1 (AstraZeneca / MedImmune, published 2019).

Sequences and labels used below:
T1: human glucose-dependent insulinotropic peptide (gastric inhibitory polypeptide) receptor (human) (UniProt P48546)
T1 sequence (looked up): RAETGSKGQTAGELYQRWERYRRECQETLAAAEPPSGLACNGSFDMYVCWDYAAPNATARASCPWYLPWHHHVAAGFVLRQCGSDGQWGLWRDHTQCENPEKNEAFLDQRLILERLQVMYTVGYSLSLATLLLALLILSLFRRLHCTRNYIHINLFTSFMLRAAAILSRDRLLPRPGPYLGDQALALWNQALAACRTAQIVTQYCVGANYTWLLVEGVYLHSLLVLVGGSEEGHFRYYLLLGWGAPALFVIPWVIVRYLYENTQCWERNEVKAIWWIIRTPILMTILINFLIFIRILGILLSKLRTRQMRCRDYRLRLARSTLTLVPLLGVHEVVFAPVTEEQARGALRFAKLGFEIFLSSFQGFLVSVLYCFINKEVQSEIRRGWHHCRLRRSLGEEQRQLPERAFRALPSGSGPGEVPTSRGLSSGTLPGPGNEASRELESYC

B1: g747 (peptide)
peptide: HSQGTFTSDYSKYLDSRRAQDFVQWLEAGGK([γGlu-Palmitoyl])-NH2
modifications: N-terminus assumed
SMILES: CCCCCCCCCCCCCCCC(=O)N[C@@H](CCC(=O)NCCCC[C@H](NC(=O)CNC(=O)CNC(=O)[C@H](C)NC(=O)[C@H](CCC(=O)O)NC(=O)[C@H](CC(C)C)NC(=O)[C@H](Cc1c[nH]c2ccccc12)NC(=O)[C@H](CCC(N)=O)NC(=O)[C@@H](NC(=O)[C@H](Cc1ccccc1)NC(=O)[C@H](CC(=O)O)NC(=O)[C@H](CCC(N)=O)NC(=O)[C@H](C)NC(=O)[C@H](CCCNC(=N)N)NC(=O)[C@H](CCCNC(=N)N)NC(=O)[C@H](CO)NC(=O)[C@H](CC(=O)O)NC(=O)[C@H](CC(C)C)NC(=O)[C@H](Cc1ccc(O)cc1)NC(=O)[C@H](CCCCN)NC(=O)[C@H](CO)NC(=O)[C@H](Cc1ccc(O)cc1)NC(=O)[C@H](CC(=O)O)NC(=O)[C@H](CO)NC(=O)[C@@H](NC(=O)[C@H](Cc1ccccc1)NC(=O)[C@@H](NC(=O)CNC(=O)[C@H](CCC(N)=O)NC(=O)[C@H](CO)NC(=O)[C@@H](N)Cc1c[nH]cn1)[C@@H](C)O)[C@@H](C)O)C(C)C)C(N)=O)C(=O)O
B2: g804 (peptide)
peptide: HSQGTFTSDYSKYK([γGlu-Palmitoyl])DSRRARDFVAWLEA-NH2
modifications: N-terminus assumed
SMILES: CCCCCCCCCCCCCCCC(=O)N[C@@H](CCC(=O)NCCCC[C@H](NC(=O)[C@H](Cc1ccc(O)cc1)NC(=O)[C@H](CCCCN)NC(=O)[C@H](CO)NC(=O)[C@H](Cc1ccc(O)cc1)NC(=O)[C@H](CC(=O)O)NC(=O)[C@H](CO)NC(=O)[C@@H](NC(=O)[C@H](Cc1ccccc1)NC(=O)[C@@H](NC(=O)CNC(=O)[C@H](CCC(N)=O)NC(=O)[C@H](CO)NC(=O)[C@@H](N)Cc1c[nH]cn1)[C@@H](C)O)[C@@H](C)O)C(=O)N[C@@H](CC(=O)O)C(=O)N[C@@H](CO)C(=O)N[C@@H](CCCNC(=N)N)C(=O)N[C@@H](CCCNC(=N)N)C(=O)N[C@@H](C)C(=O)N[C@@H](CCCNC(=N)N)C(=O)N[C@@H](CC(=O)O)C(=O)N[C@@H](Cc1ccccc1)C(=O)N[C@H](C(=O)N[C@@H](C)C(=O)N[C@@H](Cc1c[nH]c2ccccc12)C(=O)N[C@@H](CC(C)C)C(=O)N[C@@H](CCC(=O)O)C(=O)N[C@@H](C)C(N)=O)C(C)C)C(=O)O
B3: g781 (peptide)
peptide: HSQGTFTSDYSKYLDK([γGlu-Palmitoyl])RRARDFVAWLEAGG-NH2
modifications: N-terminus assumed
SMILES: CCCCCCCCCCCCCCCC(=O)N[C@@H](CCC(=O)NCCCC[C@H](NC(=O)[C@H](CC(=O)O)NC(=O)[C@H](CC(C)C)NC(=O)[C@H](Cc1ccc(O)cc1)NC(=O)[C@H](CCCCN)NC(=O)[C@H](CO)NC(=O)[C@H](Cc1ccc(O)cc1)NC(=O)[C@H](CC(=O)O)NC(=O)[C@H](CO)NC(=O)[C@@H](NC(=O)[C@H](Cc1ccccc1)NC(=O)[C@@H](NC(=O)CNC(=O)[C@H](CCC(N)=O)NC(=O)[C@H](CO)NC(=O)[C@@H](N)Cc1c[nH]cn1)[C@@H](C)O)[C@@H](C)O)C(=O)N[C@@H](CCCNC(=N)N)C(=O)N[C@@H](CCCNC(=N)N)C(=O)N[C@@H](C)C(=O)N[C@@H](CCCNC(=N)N)C(=O)N[C@@H](CC(=O)O)C(=O)N[C@@H](Cc1ccccc1)C(=O)N[C@H](C(=O)N[C@@H](C)C(=O)N[C@@H](Cc1c[nH]c2ccccc12)C(=O)N[C@@H](CC(C)C)C(=O)N[C@@H](CCC(=O)O)C(=O)N[C@@H](C)C(=O)NCC(=O)NCC(N)=O)C(C)C)C(=O)O
B4: g782 (peptide)
peptide: HSQGTFTSDYSKYLDSRK([γGlu-Palmitoyl])ARDFVAWLEAGG-NH2
modifications: N-terminus assumed
SMILES: CCCCCCCCCCCCCCCC(=O)N[C@@H](CCC(=O)NCCCC[C@H](NC(=O)[C@H](CCCNC(=N)N)NC(=O)[C@H](CO)NC(=O)[C@H](CC(=O)O)NC(=O)[C@H](CC(C)C)NC(=O)[C@H](Cc1ccc(O)cc1)NC(=O)[C@H](CCCCN)NC(=O)[C@H](CO)NC(=O)[C@H](Cc1ccc(O)cc1)NC(=O)[C@H](CC(=O)O)NC(=O)[C@H](CO)NC(=O)[C@@H](NC(=O)[C@H](Cc1ccccc1)NC(=O)[C@@H](NC(=O)CNC(=O)[C@H](CCC(N)=O)NC(=O)[C@H](CO)NC(=O)[C@@H](N)Cc1c[nH]cn1)[C@@H](C)O)[C@@H](C)O)C(=O)N[C@@H](C)C(=O)N[C@@H](CCCNC(=N)N)C(=O)N[C@@H](CC(=O)O)C(=O)N[C@@H](Cc1ccccc1)C(=O)N[C@H](C(=O)N[C@@H](C)C(=O)N[C@@H](Cc1c[nH]c2ccccc12)C(=O)N[C@@H](CC(C)C)C(=O)N[C@@H](CCC(=O)O)C(=O)N[C@@H](C)C(=O)NCC(=O)NCC(N)=O)C(C)C)C(=O)O
B5: g512 (peptide)
peptide: HGQGTFTSDYSKYLDSK([γGlu-Palmitoyl])RAQDFVQWLEAGG-NH2
modifications: N-terminus assumed
SMILES: CCCCCCCCCCCCCCCC(=O)N[C@@H](CCC(=O)NCCCC[C@H](NC(=O)[C@H](CO)NC(=O)[C@H](CC(=O)O)NC(=O)[C@H](CC(C)C)NC(=O)[C@H](Cc1ccc(O)cc1)NC(=O)[C@H](CCCCN)NC(=O)[C@H](CO)NC(=O)[C@H](Cc1ccc(O)cc1)NC(=O)[C@H](CC(=O)O)NC(=O)[C@H](CO)NC(=O)[C@@H](NC(=O)[C@H](Cc1ccccc1)NC(=O)[C@@H](NC(=O)CNC(=O)[C@H](CCC(N)=O)NC(=O)CNC(=O)[C@@H](N)Cc1c[nH]cn1)[C@@H](C)O)[C@@H](C)O)C(=O)N[C@@H](CCCNC(=N)N)C(=O)N[C@@H](C)C(=O)N[C@@H](CCC(N)=O)C(=O)N[C@@H](CC(=O)O)C(=O)N[C@@H](Cc1ccccc1)C(=O)N[C@H](C(=O)N[C@@H](CCC(N)=O)C(=O)N[C@@H](Cc1c[nH]c2ccccc12)C(=O)N[C@@H](CC(C)C)C(=O)N[C@@H](CCC(=O)O)C(=O)N[C@@H](C)C(=O)NCC(=O)NCC(N)=O)C(C)C)C(=O)O
B6: g513 (peptide)
peptide: HSEGTFTSDYSKYLDSK([γGlu-Palmitoyl])RAQDFVQWLEAGG-NH2
modifications: N-terminus assumed
SMILES: CCCCCCCCCCCCCCCC(=O)N[C@@H](CCC(=O)NCCCC[C@H](NC(=O)[C@H](CO)NC(=O)[C@H](CC(=O)O)NC(=O)[C@H](CC(C)C)NC(=O)[C@H](Cc1ccc(O)cc1)NC(=O)[C@H](CCCCN)NC(=O)[C@H](CO)NC(=O)[C@H](Cc1ccc(O)cc1)NC(=O)[C@H](CC(=O)O)NC(=O)[C@H](CO)NC(=O)[C@@H](NC(=O)[C@H](Cc1ccccc1)NC(=O)[C@@H](NC(=O)CNC(=O)[C@H](CCC(=O)O)NC(=O)[C@H](CO)NC(=O)[C@@H](N)Cc1c[nH]cn1)[C@@H](C)O)[C@@H](C)O)C(=O)N[C@@H](CCCNC(=N)N)C(=O)N[C@@H](C)C(=O)N[C@@H](CCC(N)=O)C(=O)N[C@@H](CC(=O)O)C(=O)N[C@@H](Cc1ccccc1)C(=O)N[C@H](C(=O)N[C@@H](CCC(N)=O)C(=O)N[C@@H](Cc1c[nH]c2ccccc12)C(=O)N[C@@H](CC(C)C)C(=O)N[C@@H](CCC(=O)O)C(=O)N[C@@H](C)C(=O)NCC(=O)NCC(N)=O)C(C)C)C(=O)O
B7: g734 (peptide)
peptide: HSEGTFTSDYSEYLDSK([βAla-Palmitoyl])RARDFVAWLEAGG-NH2
modifications: N-terminus assumed
SMILES: CCCCCCCCCCCCCCCC(=O)NCCC(=O)NCCCC[C@H](NC(=O)[C@H](CO)NC(=O)[C@H](CC(=O)O)NC(=O)[C@H](CC(C)C)NC(=O)[C@H](Cc1ccc(O)cc1)NC(=O)[C@H](CCC(=O)O)NC(=O)[C@H](CO)NC(=O)[C@H](Cc1ccc(O)cc1)NC(=O)[C@H](CC(=O)O)NC(=O)[C@H](CO)NC(=O)[C@@H](NC(=O)[C@H](Cc1ccccc1)NC(=O)[C@@H](NC(=O)CNC(=O)[C@H](CCC(=O)O)NC(=O)[C@H](CO)NC(=O)[C@@H](N)Cc1c[nH]cn1)[C@@H](C)O)[C@@H](C)O)C(=O)N[C@@H](CCCNC(=N)N)C(=O)N[C@@H](C)C(=O)N[C@@H](CCCNC(=N)N)C(=O)N[C@@H](CC(=O)O)C(=O)N[C@@H](Cc1ccccc1)C(=O)N[C@H](C(=O)N[C@@H](C)C(=O)N[C@@H](Cc1c[nH]c2ccccc12)C(=O)N[C@@H](CC(C)C)C(=O)N[C@@H](CCC(=O)O)C(=O)N[C@@H](C)C(=O)NCC(=O)NCC(N)=O)C(C)C

One assay deals with human glucagon receptor (human, UniProt P47871 26-477). The assay is described as follows: cell-based or functional assay.
Chain of human glucagon receptor (P47871 26-477): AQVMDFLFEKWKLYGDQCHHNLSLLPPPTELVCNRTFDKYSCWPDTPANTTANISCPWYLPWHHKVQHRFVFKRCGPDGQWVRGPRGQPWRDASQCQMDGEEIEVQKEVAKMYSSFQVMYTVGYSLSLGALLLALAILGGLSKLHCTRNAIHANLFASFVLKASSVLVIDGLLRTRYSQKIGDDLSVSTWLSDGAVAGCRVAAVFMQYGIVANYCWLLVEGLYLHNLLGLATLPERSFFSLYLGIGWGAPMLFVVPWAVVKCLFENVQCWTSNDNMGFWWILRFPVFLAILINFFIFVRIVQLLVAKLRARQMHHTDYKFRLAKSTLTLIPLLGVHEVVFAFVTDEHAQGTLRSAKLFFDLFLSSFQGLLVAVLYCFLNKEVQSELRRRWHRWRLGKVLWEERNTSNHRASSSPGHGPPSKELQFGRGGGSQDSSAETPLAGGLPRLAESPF
For B1, the cAMP EC50 (assay 1) came out at 0.0942 nM.
The molecule B2 gave a cAMP EC50 (assay 1) of 0.00195 nM.
As for B3, the cAMP EC50 (assay 1) is 0.00286 nM.
In turn, B4 had a cAMP EC50 (assay 1) of 0.156 nM.
Molecule B5 registered a cAMP EC50 (assay 1) of 0.0606 nM.
Molecule B6 came in with a cAMP EC50 (assay 1) of 0.723 nM.
As to B7, the cAMP EC50 (assay 1) came to 82.8 nM.

The target in the next assay is human GLP-1 receptor (human, UniProt P43220 24-463). Nature of the assay: cell-based or functional assay.
Chain of human GLP-1 receptor (P43220 24-463): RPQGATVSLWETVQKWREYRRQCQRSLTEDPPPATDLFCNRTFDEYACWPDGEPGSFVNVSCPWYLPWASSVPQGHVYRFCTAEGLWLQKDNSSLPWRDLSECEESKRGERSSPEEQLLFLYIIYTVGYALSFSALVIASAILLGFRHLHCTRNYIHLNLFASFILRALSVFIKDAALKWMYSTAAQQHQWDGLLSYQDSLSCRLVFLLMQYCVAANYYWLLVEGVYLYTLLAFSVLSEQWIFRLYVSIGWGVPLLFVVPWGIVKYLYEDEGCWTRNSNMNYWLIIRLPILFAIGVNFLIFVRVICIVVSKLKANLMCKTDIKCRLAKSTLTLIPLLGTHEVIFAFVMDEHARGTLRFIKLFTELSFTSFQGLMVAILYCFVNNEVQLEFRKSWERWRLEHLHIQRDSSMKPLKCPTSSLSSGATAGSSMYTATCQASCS
Molecule B1 returned a cAMP EC50 (assay 1) of 3.16 nM.
For B2, the cAMP EC50 (assay 1) was determined as 0.0715 nM.
For the molecule B3, the cAMP EC50 (assay 1) is 0.104 nM.
Same read-out and setting: then B4, with 0.0254 nM; and B5, with 0.098 nM.
B6 gave a cAMP EC50 (assay 1) of 0.175 nM.
Molecule B7 gave a cAMP EC50 (assay 1) of 0.0695 nM.

In the next assay the target is T1, human glucose-dependent insulinotropic peptide (gastric inhibitory polypeptide) receptor (human). The assay is described as follows: cell-based or functional assay.
In turn, B1 yielded a cAMP EC50 (assay 1) of 1040 nM.
The molecule B2 showed a cAMP EC50 (assay 1) of 99.7 nM.
The molecule B3 had a cAMP EC50 (assay 1) of 402 nM.
The same measure, in the same setting: in the case of B4 it was 1430 nM.
B5 had a cAMP EC50 (assay 1) of 407 nM.
In turn, B6 returned a cAMP EC50 (assay 1) of 298 nM.
In turn, B7 returned a cAMP EC50 (assay 1) of 1170 nM.
